Assay results published in patent US20220356229A1.

Biological target: SARS-CoV-2 full length Spike protein, wild type, expressed on the surface of transiently transfected CHO cells (SARS-CoV-2), P0DTC2
Conditions: remark: other sources report otherwise

B1: antibody 262 (antibody, V domains shown)
VH: QVQLVESGGGVVQPGRSLRLSCAASGFTFSSYAMHWVRQAPGKGLEWVAVISYDGSNKYYADSVKGRFTISRDNSKNTLYLQMNSLRAEDTAVYYCARDGGELLWFGELDYYGMDVWGQGTTVTVSS
VL: SYELTQPSSVSVSPGQTARITCSGDVLAKKYARWFQQKPGQAPVLVIYKDSERPSGIPERFSGSSSGTTVTLTISGAQVEDEADYYCYSAADNNRGVFGGGTKLTVL
- median fluorescence intensity, fold over isotype control (fold over isotype): 0.89
